Source: patent US20240197877A1, “BINDING PROTEINS RECOGNIZING HA-2 ANTIGEN AND USES […]” (published 2024)

Key:
[1] = target: MALT1 peptide (…) on peptide-pulsed T2 cells, HLA-A*02:01 (human); assay: cell-based or functional assay
[2] = target: MYO3A/MYO3B peptide (…) on peptide-pulsed T2 cells, HLA-A*02:01 (human); assay: cell-based or functional assay

B1: HA2-MJ14-DP317 MGTM Sequence (also known as “TCR-101” and “MJ14-DP317”) (TCR, V domains shown)
V domain 1: QTVTQSQPEMSVQEAETVTLSCTYDTSESDYYLFWYKQPPSRQMILVIRQEAYKQQNATENRFSVNFQKAAKSFSLKISDSQLGDAAMYFCAYRSERYSTLTFGKGTMLLVSP
V domain 2: SQTIHQWPATLVQPVGSPLSLECTVEGTSNPNLYWYRQAAGRGLQLLFYSVGIGQISSEVPQNLSASRPQDRQFILSSKKLLLSDSGFYLCAWSVPYLAGGKRPDTQYFGPGTRLTVLE
EC50 of cytotoxicity (AUC of growth of peptide-pulsed T2 cells over 72 h against peptide dose) [1]: 100 fold lower affinity than the target HA-2 peptide
EC50 of cytotoxicity (AUC of growth of peptide-pulsed T2 cells over 72 h against peptide dose) [2]: 100 fold lower affinity than the target HA-2 peptide
